Laboratory results reported in paper PMC9474862.

Target: APE1 WT (Homo sapiens) (UniProt P27695)
Test: EMSA
Conditions: apparent Kd, 1 mM EDTA, EMSA: 20 nM NCP, 10 mM HEPES pH 7.5, 25 mM NaCl, 1 mM DTT, 0.1 mg/mL BSA, 5% native PAGE, 0.2x TBE, 4 °C (gel), binding temperature not stated

UniProt P27695, sequence (P27695 whole entry): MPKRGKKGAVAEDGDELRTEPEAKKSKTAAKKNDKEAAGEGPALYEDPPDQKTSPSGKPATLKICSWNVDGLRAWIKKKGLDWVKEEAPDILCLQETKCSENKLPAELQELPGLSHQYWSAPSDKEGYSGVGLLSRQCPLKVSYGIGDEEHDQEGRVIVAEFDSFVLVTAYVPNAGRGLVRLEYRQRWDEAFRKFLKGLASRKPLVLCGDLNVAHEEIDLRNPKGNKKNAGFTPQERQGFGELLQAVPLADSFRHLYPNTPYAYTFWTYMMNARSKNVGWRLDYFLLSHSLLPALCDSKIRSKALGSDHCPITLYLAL

## ATCGAGAATCCCGGTGCCGAGGCCGCTCAATTGGTCGTAGACAGCTCTAGCACCGCTTAAACGCACGTACGCNCTGTCCCCCGCGTTTTAACCGCCAAGGGGATTACTCCCTAGTCTCCAGGCACGTGTCAGATATATACATCCGAT / ATCGGATGTATATATCTGACACGTGCCTGGAGACTAGGGAGTAATCCCCTTGGCGGTTAAAACGCGGGGGACAGCGCGTACGTGCGTTTAAGCGGTGCTAGAGCTGTCTACGACCAATTGAGCGGCCTCGGCACCGGGATTCTCGAT [AP-NCP0]
one-site fit with ligand depletion, N in strand 1 = THF (AP site analog) at SHL0 (dyad), occluded
  Kd: 20 nM

## ATCGAGAATCCCGGTGCCGAGGCCGCTCAATTGGTCGTAGACAGCTCTAGCACCGCTTAAACGCACGTACGCGCTGTCCCCCGCGTTTTAACCGCCAAGGGGATTACTCCCTAGTCTCCAGGCACGTGTCAGATATATACATCCGAT (double strand) [ND-NCP]
Nonspecific binding, no AP site
  Kd: 71 nM

## ATCGAGAATCCCGGTGCCGAGGCCGCTCAATTGGTCGTAGACAGCTCTAGCACCGCTTAAACGCACGTACGCGCTGTCCCCCGCGTTTTAACCGCCAAGGGGATTACTCCCTAGTCTCCAGGCACGTGTCAGATATATACATNCGAT / ATCGGATGTATATATCTGACACGTGCCTGGAGACTAGGGAGTAATCCCCTTGGCGGTTAAAACGCGGGGGACAGCGCGTACGTGCGTTTAAGCGGTGCTAGAGCTGTCTACGACCAATTGAGCGGCCTCGGCACCGGGATTCTCGAT [AP-NCP-6.5]
one-site fit with ligand depletion, N in strand 1 = THF (AP site analog) at SHL-6.5, occluded
  Kd: 20 nM

## ATCGAGAATCCCGGTGCCGAGGCCGCTCAATTGGTCGTAGACAGCTCTAGCACCGCTTAAACGCACGTACGCGCTGTCCCCCGCGTTTTAACCGCCAAGGGGATTACTCCCTAGTCTCCAGGCACGTGTCAGATATATNCATCCGAT / ATCGGATGTATATATCTGACACGTGCCTGGAGACTAGGGAGTAATCCCCTTGGCGGTTAAAACGCGGGGGACAGCGCGTACGTGCGTTTAAGCGGTGCTAGAGCTGTCTACGACCAATTGAGCGGCCTCGGCACCGGGATTCTCGAT [AP-NCP-6]
one-site fit with ligand depletion, N in strand 1 = THF (AP site analog) at SHL-6, solvent-exposed
  Kd: 17 nM
